Source: US20260226095A1 (GLYTECH, published 2026)

B1: scFv Ab1 (D2B) of synthesis (scFv)
scFv: EVKLQESGPGLVKPSQSLSLTCSVTGYSITSGYYWNWIRQFPGNKLEWMGSISFDGNNNYNPSLRNRISITRDTSKNQFFLKLNSVTTEDTATYYCAREGDYYGSSFFTYWGQGTLVTVSSGGGGSGGGGSGGGGSALDIVMTQSPASLSASVGETVTLTCGASENIYGALNWYQRKQGKSPQLLIYGATNLADGMSSRFSGSGSGRQYSLKISSLHPDDVATYYCQNVFRTYTFGGGTKLEIKRAAAHHHHHH
modifications: L-pyroglutamic acid (<E) printed at position 1 of segment 1; two disulfide bonds (C22-C96 and C161-C226)
notes: Made by full chemical synthesis, 254 residues ending at H254; also called scFv Ab1 synthesis; scFv D2B
B2: scFv Ab1 RREF (scFv)
scFv: EVKLQESGPGLVKPSQSLSLTCSVTGYSITSGYYWNWIRQFPGNKLEWMGSISFDGNNNYNPSLRNRISITRDTSKNQFFLKLNSVTTEDTATYYCAREGDYYGSSFFTYWGQGTLVTVSSGGGGSGGGGSGGGGSALDIVMTQSPASLSASVGETVTLTCGASENIYGALNWYQRKQGKSPQLLIYGATNLADGMSSRFSGSGSGRQYSLKISSLHPDDVATYYCQNVFRTYTFGGGTKLEIKRAAAHHHHHH
notes: Produced in a prokaryotic system; Contains two tags (Myc and His); not shown: Myc tag present in RREF in addition to the His tag

Target: hPSMA (purified and soluble antigen) (human (printed as hPSMA), UniProt Q04609 44-750)
Assay: SPR, Biacore T200, standard kinetics, antigen immobilized on CM5 chip

Chain of hPSMA (purified and soluble antigen) (Q04609 44-750): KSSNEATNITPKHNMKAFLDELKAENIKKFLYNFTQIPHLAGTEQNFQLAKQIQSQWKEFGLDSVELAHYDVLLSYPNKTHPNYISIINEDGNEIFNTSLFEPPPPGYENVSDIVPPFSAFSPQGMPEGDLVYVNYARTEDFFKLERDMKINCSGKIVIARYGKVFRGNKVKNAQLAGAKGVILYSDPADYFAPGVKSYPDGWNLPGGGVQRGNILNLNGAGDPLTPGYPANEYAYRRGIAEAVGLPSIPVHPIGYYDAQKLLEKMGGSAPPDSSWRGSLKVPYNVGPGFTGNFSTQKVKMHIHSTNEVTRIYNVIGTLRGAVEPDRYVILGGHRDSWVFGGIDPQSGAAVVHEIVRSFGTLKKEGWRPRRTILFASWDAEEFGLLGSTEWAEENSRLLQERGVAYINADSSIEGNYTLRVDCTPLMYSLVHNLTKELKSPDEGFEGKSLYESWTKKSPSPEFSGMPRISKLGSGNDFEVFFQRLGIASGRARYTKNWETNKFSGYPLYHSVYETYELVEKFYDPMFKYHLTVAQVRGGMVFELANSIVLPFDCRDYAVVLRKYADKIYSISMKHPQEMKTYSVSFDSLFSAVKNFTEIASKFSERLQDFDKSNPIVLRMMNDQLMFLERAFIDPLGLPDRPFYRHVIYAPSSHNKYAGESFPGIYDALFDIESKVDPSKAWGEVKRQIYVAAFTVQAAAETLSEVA

Binder	Kd [nM]
B1	12
B2	27
